The target of this assay is GST-tagged A. thaliana Rpn10 (AtRpn10) vWA domain (Arabidopsis thaliana) (UniProt P55034). As to the kind of experiment: SPR. (In general: In SPR one partner is held on a chip, and binding of the other changes the refractive index at the surface.)

What is called Kd is a measure of binding affinity in units of concentration. Read a low Kd as higher affinity.

GST-tagged A. thaliana Rpn10 (AtRpn10) vWA domain (Arabidopsis thaliana), sequence (P55034 2-193): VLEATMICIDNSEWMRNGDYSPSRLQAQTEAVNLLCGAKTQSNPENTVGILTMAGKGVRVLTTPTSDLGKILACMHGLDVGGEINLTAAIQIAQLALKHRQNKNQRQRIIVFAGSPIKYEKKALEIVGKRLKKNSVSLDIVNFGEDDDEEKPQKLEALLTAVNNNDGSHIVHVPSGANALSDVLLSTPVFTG

Substance “V-shape-GSGS-C-ter peptide (fused V-shape and C-ter peptide of SAP05, linked by the GSGS linker)” yielded a Kd of 34.3 µM.

These data come from article doi:10.1101/2023.08.24.554544.
